According to the supplement of paper PMC11502859:

System: HEK293T
Test: median enrichment of reporter reads in eGFP-reduced (low/intermediate) vs eGFP-high sorted cells (eGFP-extension fusion abundance) (ratio); higher = stronger loss of eGFP-fusion protein abundance (more destabilising extension)
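Further: lentiviral eGFP-IRES-mCherry reporter pool sorted by FACS 96 h post-transduction, gated on mCherry-high cells, Illumina read counts normalized per million, median across four biological replicates.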

Substance | median enrichment
SGEMCVTINSKMGKPPSPCI [AK3] | 0.494
SGFLKLSSKLLRLFK [FABP12] | 7.41
SGGLPRRAKMAEMILKITEEREDQPEFPLDICVFLFFYFVLFFLLLLLP [SOX9] | 4.3
SGGV [DHRS2] | 0.226
SGGVGPGRAGVCWHRQPPLWALGGPLKGSPTRGPDESFLSGVGSQRGSPPAAWGRAWPGRVIQRVCQPLTGSPSVAATRSTEL [FAM53B] | 5.41
SGIRLPGNSGTVALADHLQHPAS [SLC2A10] | 0.633
SGKWCFPQEDYWNWMTSE [ACBD5] | 2
SGLDSTRALENEMTV [APCS] | 0.582
SGLELYPGPNSRTTRGLQTFLGGQAGQMAPPLGNAPSCAVERS [ELF3] | 2.16
SGLLALTLQPTLAVWPSPGSFPAPLPLFPVLLNSPSWRVQALGMGGTRPHSFHRALRPDTADQPHSAQEAASGVGAQRGTAAS [BAP1] | 1.74
SGLLLY [MRPL20] | 1.83
SGLLPLGPLTLSGWWTTKYNPVYNLKIYFTFVLLYLFIKG [SMAD4] | 7.74
SGLPLPSLLEIVNPAVCAGLIVSVL [FBXO25] | 6.93
SGLQGRQLSFV [SYT17] | 0.686
SGLSDCPCPAHHPVTATPKPTPTGAHCPTPAPGRHPAGHFTCCH [FERMT3] | 1.55
SGLVCRTAAGAPPGQIIAASDCGLYLFIPSDFFNVRYL [FBLN1] | 30.5
SGLWPGTRSHLAGRWLLPQFSLENPQLSTHPLPQNQFQ [RBM42] | 9.36
SGNRDAFPCSSLQPPLPYKIWSNS [ADH1B] | 2.16
SGPGIHVGGRGRGGRREGRGEIHTVDTLTSWPKSLPQDLPDLHGQASYGGVSISFFLFLFPGLRASWGPRFTNSPTPLKLWRR [AQP1] | 5.75
SGPPFGHHQVPKVPQEASTLHARPASISLSFPVWPSFEGHVRWRSQARQTLTRGLSSKRALGWTTENISSRGSYNKNTYLPAL [PLPP7] | 3.53

Substance | median enrichment
SGPPPAILSS [CYP4A22] | 0.549
SGQGPRTQCLARPLPLAFEAKASSR [AGT] | 0.949
SGQGQPRD [SLC5A5] | 0.35
SGSCCVPTETTIWGLLGNAVNAEGSDVWVL [PATZ1] | 10.9
SGSIFLIDEKNNSVMAIYPC [NDUFA1] | 9.19
SGSRRSRRDPHGSIALASDLAWRYFCRELGSRNASDLSALHIVGLKSGWELAKSLFRLFN [MRPL34] | 8.92
SGSVTRCSLIPADLTGPLANPTSNQKCSSVESETGKWLLQDYSLLQKRNQIHEWKSLCKFNFITHNMYYFF [PUM1] | 8.89
SGTAVPACSPHLGRGSLAAFSLRSRST [AGAP1] | 8.94
SGTRKEID [PCDHB16] | 0.57
SGTVGCVGVGIPLAPASPTLALQLGPRGISVLLSQGRSPAGDGGRGSSILPRVCLGVCEQVCKTPEAEAILPPRSLEGVCAWA [ZSWIM4] | 5.27
SGTWCATGCKLQGIFIGCSCIVLHSSAIYF [PSEN2] | 7.44
SGV [PTCHD4] | 0.462
SGVLSSHFCVTCHFLPLVPCRFGMKMVSFAVFNLFFIMVEYSSRSFVLVYEENLHIFFVFQ [CHIC1] | 9.4
SGWGWTNNQARAEGFMERPLGDPR [S1PR2] | 0.739
SGWLSLPFSPSLSALGSVSTAGPKVKVLPLPEASWQGLSWLEVASLVPVLTPRPQRSCLPCCLSPPLCLCLRCVSHSEPPCFC [CCDC97] | 5.33
SGWLSTCSSWMASGPKLQSLNDQEQHEGLGTYPCKEFLDG [SQOR] | 1.57
SHFKLTL [PTGIR] | 1.1
SHGGVRSCPCSESTFPAIPGAGGACASAIPCDQAPRGRDQRGRKHCACAELSASARRASLPNQPWVPGSRLEPAINSLFLAPG [TSSK6] | 4.1
SHH [SPRY2] | 0.73
SHHQELTHT [NUP88] | 0.49

Substance | median enrichment
SHVGQIKRQLQK [CTSO] | 0.527
SHVRNLSIK [AGTR1] | 0.587
SIFFYQEG [PTEN] | 2.76
SIILSPFGSCVERECEIYIISFWERLVLDAP [HSP90B1] | 10.5
SILFHLILALHLLYISPE [CLRN3] | 9.21
SIPHPGSSAPRAGGHLRSVISL [IP6K2] | 0.975
SISL [NPAS4] | 0.469
SISPSC [OR5AK2] | 0.461
SITLILWKSEQAVAVFHSSSCCVQLLPSQPFNKIILKCYPSALPFNGKMKGSDNTGGPNFVPVLCVPYLSVPVYRLCKSLV [RABL3] | 6.24
SIVLSTNLKSKGSSQSQPLCP [HIST1H3E] | 3.49
SKACILFEDIYKAI [KRT34] | 2.29
SKCVLRASLFFTAAATFPHCLRCREGQVPASTGISDKPRAQPTRGSSLHAHTGYGDGGLQVSSARGLSLWHPHSCPAREALVV [SSNA1] | 5.95
SKERHTSEQRSYMCTK [DEFB114] | 0.227
SKGQLPGKTRF [PHLDA1] | 1.67
SKHLKC [FAN1] | 0.578
SKILVLLNYLI [TIPARP] | 5.53
SKNQRGSEKPRET [CDKN2A] | 0.493
SKQKHQHTSLDNSIWSTRLSYRFNFFCILRTL [HNRNPH3] | 6.48
